Stoichiometry N data for one substance are collected here from article doi:10.1101/218669.

For the test, the target named is Pragmin 906-1368 (Pragmin C) (Rattus norvegicus) (UniProt D3ZMK9). The test is described as follows: MALLS + DLS + SAXS.

With “Pragmin 906-1368 (Pragmin C) (from UniProt D3ZMK9 906-1368) (domain or fragment)”, the stoichiometry N amounted to 2.
